Data: patent publication US20220293215A1 (BROAD INSTITUTE, published 2022)

Biological target: T1, I-A^b (MHCII) of murine bone marrow-derived dendritic cells from C57BL/6J mice (mouse, UniProt P14434 24-256; P14483 28-265)
T1 construct: whole, on cells; also called H2-IA
T1 sequence (MHC II alpha, looked up): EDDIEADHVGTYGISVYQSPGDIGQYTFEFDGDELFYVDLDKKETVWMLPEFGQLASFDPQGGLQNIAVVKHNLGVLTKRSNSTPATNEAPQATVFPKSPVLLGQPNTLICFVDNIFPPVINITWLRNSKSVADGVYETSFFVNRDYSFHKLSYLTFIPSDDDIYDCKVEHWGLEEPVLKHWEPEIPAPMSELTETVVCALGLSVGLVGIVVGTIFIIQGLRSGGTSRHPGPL
T1 sequence (MHC II beta, looked up): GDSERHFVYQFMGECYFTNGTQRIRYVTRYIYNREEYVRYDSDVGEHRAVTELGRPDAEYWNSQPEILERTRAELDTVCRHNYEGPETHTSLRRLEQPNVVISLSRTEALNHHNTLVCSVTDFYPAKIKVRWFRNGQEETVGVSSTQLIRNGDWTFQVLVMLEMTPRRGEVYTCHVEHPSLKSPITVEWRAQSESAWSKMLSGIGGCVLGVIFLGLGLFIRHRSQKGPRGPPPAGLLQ
Experiment: MHCII peptidomics: Y3P IP of peptide-MHCII from BMDCs exposed to live Listeria, iTRAQ LC-MS/MS

Binder | logFC
KEKVVATPVSNVSTSS [Listeria peptide KEKVVATPVSNVSTSS (lmo0186)] | -0.21 log2 fold change, Listeria 6 hr versus 10 min
YPGSDETPPVVNPGE [Listeria peptide YPGSDETPPVVNPGE (lmo2185)] | 0.785 log2 fold change, Listeria 6 hr versus 10 min
GTKEKVVATPVSNVSTSSA (also called lmo0186_285-303) [Listeria peptide GTKEKVVATPVSNVSTSSA (lmo0186)] | 0.489 log2 fold change, Listeria 6 hr versus 10 min
RYVFDTAKATAASSYPGSDETPP [Listeria peptide RYVFDTAKATAASSYPGSDETPP (lmo2185)] | 0.271 log2 fold change, Listeria 6 hr versus 10 min
TTVKFTLPTVAPAFENT [Listeria peptide TTVKFTLPTVAPAFENT (lmo0135)] | 0.0598 log2 fold change, Listeria 6 hr versus 10 min
SSYPGSDETPPVVNPGETNPP [Listeria peptide SSYPGSDETPPVVNPGETNPP (lmo2185)] | 0.292 log2 fold change, Listeria 6 hr versus 10 min
DDTTVKFTLPTVAPAFENT [Listeria peptide DDTTVKFTLPTVAPAFENT (lmo0135)] | 0.786 log2 fold change, Listeria 6 hr versus 10 min
YVFDTAKATAASSYPGSDETPP [Listeria peptide YVFDTAKATAASSYPGSDETPP (lmo2185)] | 0.611 log2 fold change, Listeria 6 hr versus 10 min
GGINQAYTGSTALSDG [Listeria peptide GGINQAYTGSTALSDG (lmo2360)] | 0.239 log2 fold change, Listeria 6 hr versus 10 min
DFRYVFDTAKATAASSYPGSDETPP [Listeria peptide DFRYVFDTAKATAASSYPGSDETPP (lmo2185)] | 0.678 log2 fold change, Listeria 6 hr versus 10 min
RYVFDTAKATAASSYPGSDETPPVVNPGETNPP [Listeria peptide RYVFDTAKATAASSYPGSDETPPVVNPGETNPP (lmo2185)] | 0.634 log2 fold change, Listeria 6 hr versus 10 min
STVVVEAGDTLWGIAQSKGTT (also called lmo0582a_26-46) [Listeria peptide STVVVEAGDTLWGIAQSKGTT (lmo0582 (lap))] | 0.489 log2 fold change, Listeria 6 hr versus 10 min
ADFRYVFDTAKATAASSYPGSDETPP [Listeria peptide ADFRYVFDTAKATAASSYPGSDETPP (lmo2185)] | 1.56 log2 fold change, Listeria 6 hr versus 10 min
VDDTTVKFTLPTVAPAFENT (also called lmo0135_150-169) [Listeria peptide VDDTTVKFTLPTVAPAFENT (lmo0135)] | 0.844 log2 fold change, Listeria 6 hr versus 10 min
GTKEKVVATPVSNVST [Listeria peptide GTKEKVVATPVSNVST (lmo0186)] | 0.0371 log2 fold change, Listeria 6 hr versus 10 min
VDDTTVKFTLPTVAPAFE [Listeria peptide VDDTTVKFTLPTVAPAFE (lmo0135)] | 0.455 log2 fold change, Listeria 6 hr versus 10 min
AVDDTTVKFTLPTVAPAFENT [Listeria peptide AVDDTTVKFTLPTVAPAFENT (lmo0135)] | 0.871 log2 fold change, Listeria 6 hr versus 10 min
ADFRYVFDTAKATAASSYPG (also called lmo2185_293-312) [Listeria peptide ADFRYVFDTAKATAASSYPG (lmo2185)] | 1.57 log2 fold change, Listeria 6 hr versus 10 min
DDTTVKFTLPTVAPAFEN [Listeria peptide DDTTVKFTLPTVAPAFEN (lmo0135)] | 0.26 log2 fold change, Listeria 6 hr versus 10 min
TKEKVVATPVSNVSTSS [Listeria peptide TKEKVVATPVSNVSTSS (lmo0186)] | -0.286 log2 fold change, Listeria 6 hr versus 10 min
AVDDTTVKFTLPTVAPAFENTIK [Listeria peptide AVDDTTVKFTLPTVAPAFENTIK (lmo0135)] | 0.464 log2 fold change, Listeria 6 hr versus 10 min
APGQETQHYYGLPVADSAIDR (also called lmo2558_533-553) [Listeria peptide APGQETQHYYGLPVADSAIDR (lmo2558 (ami))] | 0.856 log2 fold change, Listeria 6 hr versus 10 min
GINQAYTGSTALSDG [Listeria peptide GINQAYTGSTALSDG (lmo2360)] | 0.261 log2 fold change, Listeria 6 hr versus 10 min
EAKELVDNAPKALKEGIA [Listeria peptide EAKELVDNAPKALKEGIA (lmo0251 (rplL))] | 0.93 log2 fold change, Listeria 6 hr versus 10 min
GGINQAYTGSTALSDGLN (also called lmo2360_289-306) [Listeria peptide GGINQAYTGSTALSDGLN (lmo2360)] | 0.555 log2 fold change, Listeria 6 hr versus 10 min
VETKADIDALSLLSDKIFVTNQT [Listeria peptide VETKADIDALSLLSDKIFVTNQT (lmo1451 (ispH))] | 1.06 log2 fold change, Listeria 6 hr versus 10 min
IAVTAFAAPTIASA (also called lmo0582b_12-25) [Listeria peptide IAVTAFAAPTIASA (lmo0582 (lap))] | 0.181 log2 fold change, Listeria 6 hr versus 10 min
DGLTWHDGKPLTADDV [Listeria peptide DGLTWHDGKPLTADDV (lmo0135)] | 1.02 log2 fold change, Listeria 6 hr versus 10 min
DDTTVKFTLPTVAPAFE [Listeria peptide DDTTVKFTLPTVAPAFE (lmo0135)] | 0.387 log2 fold change, Listeria 6 hr versus 10 min
YPGSDETPPVVNPGETN [Listeria peptide YPGSDETPPVVNPGETN (lmo2185)] | 1.86 log2 fold change, Listeria 6 hr versus 10 min
